One molecule from patent US20260234255A1 (Genmab, published 2026) can be followed below.

Assay [1] concerns the target T1, human CD30 (human, UniProt P28908 19-595).
T1 construct: also called huCD30; TNFRSF8
T1 sequence: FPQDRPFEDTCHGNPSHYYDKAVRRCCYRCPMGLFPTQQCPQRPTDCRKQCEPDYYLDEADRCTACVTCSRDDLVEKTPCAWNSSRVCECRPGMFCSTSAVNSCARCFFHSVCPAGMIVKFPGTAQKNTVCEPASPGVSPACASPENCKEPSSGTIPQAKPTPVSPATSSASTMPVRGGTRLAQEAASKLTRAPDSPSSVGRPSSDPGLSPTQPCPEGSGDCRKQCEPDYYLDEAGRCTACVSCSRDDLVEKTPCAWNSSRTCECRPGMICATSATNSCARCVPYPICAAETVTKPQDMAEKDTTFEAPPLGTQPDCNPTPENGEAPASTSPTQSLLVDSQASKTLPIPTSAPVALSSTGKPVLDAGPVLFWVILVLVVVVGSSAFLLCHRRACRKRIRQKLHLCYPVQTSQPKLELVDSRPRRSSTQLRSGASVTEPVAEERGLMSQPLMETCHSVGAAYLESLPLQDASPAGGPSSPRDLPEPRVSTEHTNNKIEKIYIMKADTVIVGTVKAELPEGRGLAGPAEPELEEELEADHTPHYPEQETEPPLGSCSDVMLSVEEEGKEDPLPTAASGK
Briefly: flow cytometry, HDLM-2 cells. Summed up: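 CD3×CD30 bispecific antibodies, serially diluted 3-fold from 10 to 0.0046 μg/mL, were incubated with 3×10⁴ cells/well at 4° C for 30 min, then with a secondary antibody at 4° C for 30 min. Live cells were gated by FSC/SSC and TO-PRO-3 exclusion, and curves were fitted by four-parameter sigmoidal regression.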
(In general: Flow cytometry measures light scatter and fluorescence of single cells or particles in a stream.)

For assay [2], the target named is T2, human CD3 (human, UniProt P07766 23-207).
T2 construct: CD3 endogenously expressed on primary human T cells (whole TCR/CD3 complex); also called human CD3 (epsilon)
Briefly: flow cytometry, primary human T cells. The protocol: Cynomolgus monkey PBMCs (Tebu-Bio, The Netherlands; cat. no. PBMCMFA-10) or purified human T cells were plated in polystyrene 96-well round-bottom plates. T cells were derived from human donor buffy coats (Sanquin, Amsterdam, The Netherlands) and isolated using the RosetteSep human T cell enrichment cocktail (Stemcell Technologies, France, cat. no. 15061) according to manufacturer's instructions. […] After washing twice in staining buffer, cells were incubated in 50 μL secondary R-PE-conjugated goat-anti-human IgG antibody at 4° C. for 30 min (1:400 dilution). After washing twice in staining buffer, T cells were stained for T-cell markers CD3 (1:100; Miltenyi biotec, clone 10D12, conjugated to APC), CD4 (1:50; eBioscience, clone OKT4, conjugated to APC-Cy7), CD8 (1:100; Biolegend, clone RPA-T8, conjugated to AF700) and T-cell activation markers CD69 (1:50; BD Biosciences, clone AB2439, conjugated to FITC), CD25 (1:50; eBioscience, clone BC96, conjugated to PE-Cy7) and CD279/PD1 (1:50; BD Biosciences, clone AEH12.2H7, conjugated to BV605). Single stained samples with Ultracomp beads (5 μL; Invitrogen, cat. no. 01-2222-42) were used for compensation adjustments of the flow cytometer. After 30 min of incubation at 4° C., cells were washed twice with staining buffer, resuspended in 100 μL staining buffer and analyzed using a FACS Fortessa (BD Biosciences). […]

Assay [3] has as its target T3, cynomolgus monkey (Macaca fascicularis) CD30 (cynomolgus monkey, UniProt P28908 19-595 (human entry)).
T3 construct: also called mfCD30
T3 chain: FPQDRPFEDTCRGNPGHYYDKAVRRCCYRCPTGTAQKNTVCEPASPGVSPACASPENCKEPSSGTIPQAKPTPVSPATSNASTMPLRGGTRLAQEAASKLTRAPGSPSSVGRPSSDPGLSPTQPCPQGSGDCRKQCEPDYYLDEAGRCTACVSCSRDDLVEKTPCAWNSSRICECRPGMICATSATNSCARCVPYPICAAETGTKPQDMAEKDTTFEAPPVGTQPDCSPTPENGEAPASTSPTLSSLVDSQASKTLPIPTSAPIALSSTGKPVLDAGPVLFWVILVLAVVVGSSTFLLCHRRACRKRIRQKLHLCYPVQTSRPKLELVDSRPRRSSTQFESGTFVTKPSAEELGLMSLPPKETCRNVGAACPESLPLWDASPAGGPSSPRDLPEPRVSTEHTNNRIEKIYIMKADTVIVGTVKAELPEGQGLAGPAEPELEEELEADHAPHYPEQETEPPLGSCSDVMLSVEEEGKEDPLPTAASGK
Briefly: flow cytometry, Expi293F cells transfected with cynomolgus monkey CD30 (mfCD30). The method, then:
Cells (3×10⁴ cells/well) were incubated in polystyrene 96-well round-bottom plates (Greiner bio-one, cat. no. 650180) with serial dilutions of antibodies (ranging from 0.005 to 10 μg/mL in 3-fold dilution steps) in 100 μL staining buffer at 4° C. for 30 min. Experiments were performed in technical duplicate. After washing twice in staining buffer, cells were incubated in 50 μL secondary antibody at 4° C. for 30 min. As a secondary antibody, R-PE-conjugated goat-anti-human IgG (Jackson ImmunoResearch, UK; cat. no. 109⁻¹¹⁶-098) diluted 1:400 in staining buffer was used. Cells were washed twice in staining buffer, resuspended in 30 μL staining buffer containing 0.4% EDTA and analyzed on an iQue Screener (Intellicyt Corporation, USA). Binding curves were analyzed using non-linear regression (sigmoidal dose-response with variable slope) using GraphPad Prism V9.0.0 software (GraphPad Software, San Diego, CA, USA).

In assay [4] the target is T4, cynomolgus monkey CD3 (cynomolgus monkey, UniProt Q95LI5 22-198).
T4 construct: CD3 endogenously expressed on T cells within cynomolgus monkey PBMCs
Briefly: flow cytometry, cynomolgus monkey T cells (PBMCs). The protocol:
Cynomolgus monkey PBMCs (Tebu-Bio, The Netherlands; cat. no. PBMCMFA-10) or purified human T cells were plated in polystyrene 96-well round-bottom plates. T cells were derived from human donor buffy coats (Sanquin, Amsterdam, The Netherlands) and isolated using the RosetteSep human T cell enrichment cocktail (Stemcell Technologies, France, cat. no. 15061) according to manufacturer's instructions. […] After washing twice in staining buffer, cells were incubated in 50 μL secondary R-PE-conjugated goat-anti-human IgG antibody at 4° C. for 30 min (1:400 dilution). After washing twice in staining buffer, T cells were stained for T-cell markers CD3 (1:100; Miltenyi biotec, clone 10D12, conjugated to APC), CD4 (1:50; eBioscience, clone OKT4, conjugated to APC-Cy7), CD8 (1:100; Biolegend, clone RPA-T8, conjugated to AF700) and T-cell activation markers CD69 (1:50; BD Biosciences, clone AB2439, conjugated to FITC), CD25 (1:50; eBioscience, clone BC96, conjugated to PE-Cy7) and CD279/PD1 (1:50; BD Biosciences, clone AEH12.2H7, conjugated to BV605). Single stained samples with Ultracomp beads (5 μL; Invitrogen, cat. no. 01-2222-42) were used for compensation adjustments of the flow cytometer. After 30 min of incubation at 4° C., cells were washed twice with staining buffer, resuspended in 100 μL staining buffer and analyzed using a FACS Fortessa (BD Biosciences). Data were processed using FlowJo (BD Biosciences).

T4 sequence (Q95LI5 22-198): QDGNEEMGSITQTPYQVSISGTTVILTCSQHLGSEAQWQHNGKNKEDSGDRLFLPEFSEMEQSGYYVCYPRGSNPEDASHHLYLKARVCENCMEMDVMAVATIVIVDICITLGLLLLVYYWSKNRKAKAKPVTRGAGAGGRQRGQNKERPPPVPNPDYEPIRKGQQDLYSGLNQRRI
T2 sequence (P07766 23-207 limits assumed): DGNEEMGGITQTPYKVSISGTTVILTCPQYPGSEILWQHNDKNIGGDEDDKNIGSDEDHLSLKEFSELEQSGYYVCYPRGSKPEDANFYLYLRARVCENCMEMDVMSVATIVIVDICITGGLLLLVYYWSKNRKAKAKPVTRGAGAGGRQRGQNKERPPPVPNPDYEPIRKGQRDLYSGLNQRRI

B1: IgG1-CD30-MDX060-FEAR (antibody)
heavy: QVQLQQWGAGLLKPSETLSLTCAVYGGSFSAYYWSWIRQPPGKGLEWIGDINHGGGTNYNPSLKSRVTISVDTSKNQFSLKLNSVTAADTAVYYCASLTAYWGQGSLVTVSSASTKGPSVFPLAPSSKSTSGGTAALGCLVKDYFPEPVTVSWNSGALTSGVHTFPAVLQSSGLYSLSSVVTVPSSSLGTQTYICNVNHKPSNTKVDKRVEPKSCDKTHTCPPCPAPEFEGGPSVFLFPPKPKDTLMISRTPEVTCVVVAVSHEDPEVKFNWYVDGVEVHNAKTKPREEQYNSTYRVVSVLTVLHQDWLNGKEYKCKVSNKALPAPIEKTISKAKGQPREPQVYTLPPSREEMTKNQVSLTCLVKGFYPSDIAVEWESNGQPENNYKTTPPVLDSDGSFFLYSRLTVDKSRWQQGNVFSCSVMHEALHNHYTQKSLSLSPG
light: DIQMTQSPTSLSASVGDRVTITCRASQGISSWLTWYQQKPEKAPKSLIYAASSLQSGVPSRFSGSGSGTDFTLTISSLQPEDFATYYCQQYDSYPITFGQGTRLEIKRTVAAPSVFIFPPSDEQLKSGTASVVCLLNNFYPREAKVQWKVDNALQSGNSQESVTEQDSKDSTYSLSSTLTLSKADYEKHKVYACEVTHQGLSSPVTKSFNRGEC
notes: Monospecific, bivalent parental antibody; also called IgG1-MDX060-FEAR
One may read the EC50 (read off the curve) as the concentration giving half of the maximal effect. Take B1: the “EC50 (read off the curve)” value in assay [1] is around 0.2 µg/mL. The binding result in assay [2] was “no binding (tested: 10 ug/mL)”; in assay [3], “binds”; in assay [4], “no binding (tested: 10 ug/mL)”.
